In publication doi:10.1101/2019.12.19.882696:

Target: Cys-OmpX labelled with Alexa Fluor 488 (E. coli) (UniProt P0A917)
Experiment: MST

With “E. coli SurA wild type (mature, tag cleaved) (from UniProt P0ABZ6 21-428) (natural protein)” the Kd was 800 nM.
